Paper doi:10.1101/2021.04.01.438030

Biological target: SNAP-GLP-1R (glucagon-like peptide-1 receptor with an N-terminal SNAP-tag) on HEK293-SNAP-GLP-1R cells (UniProt P43220)
Experiment: FRET

UniProt P43220, sequence (P43220 24-463): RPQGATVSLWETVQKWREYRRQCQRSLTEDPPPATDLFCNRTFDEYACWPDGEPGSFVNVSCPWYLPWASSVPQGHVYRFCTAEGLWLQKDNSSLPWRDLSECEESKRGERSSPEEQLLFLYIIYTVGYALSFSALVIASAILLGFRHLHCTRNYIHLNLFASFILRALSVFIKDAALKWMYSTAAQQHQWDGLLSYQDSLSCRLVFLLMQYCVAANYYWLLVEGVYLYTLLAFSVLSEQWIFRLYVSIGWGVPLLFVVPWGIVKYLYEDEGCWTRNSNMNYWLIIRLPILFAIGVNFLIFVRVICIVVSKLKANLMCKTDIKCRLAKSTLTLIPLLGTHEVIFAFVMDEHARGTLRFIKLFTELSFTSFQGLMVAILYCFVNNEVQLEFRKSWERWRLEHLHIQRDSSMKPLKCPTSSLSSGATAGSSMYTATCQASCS

Row | Substance | Ki [nM]
1 | exendin-4 (from UniProt P26349 48-87) | 0.63
2 | exendin-4-C16 (from UniProt P26349 48-87) | 1.6
